How the values were obtained:
SEC = target: the molecule itself; experiment: SEC
[1] = target: T1, Mycobacterium tuberculosis DnaK, full length, wild type (Mycobacterium tuberculosis, UniProt P9WMJ9 1-625); experiment: ITC; as a1, with 2 mM ADP added to both the DnaK and the GrpE solution; conditions: both partners purified
T1 construct: DnaK (Hsp70 chaperone) of Mycobacterium tuberculosis, full length; also called Mtb DnaK; WT DnaK

[2] = target: T1, Mycobacterium tuberculosis DnaK, full …; experiment: ITC; as a1, with 2 mM ATP added to both the DnaK and the GrpE solution; conditions: both partners purified

B1: Mycobacterium tuberculosis GrpE, full length, wild type (natural protein)
chain: MTDGNQKPDGNSGEQVTVTDKRRIDPETGEVRHVPPGDMPGGTAAADAAHTEDKVAELTADLQRVQADFANYRKRALRDQQAAADRAKASVVSQLLGVLDDLERARKHGDLESGPLKSVADKLDSALTGLGLVAFGAEGEDFDPVLHEAVQHEGDGGQGSKPVIGTVMRQGYQLGEQVLRHALVGVVDTVVVDAAELESVDDGTAVADTAENDQADQGNSADTSGEQAESEPSGS
notes: GrpE (nucleotide exchange factor) of Mycobacterium tuberculosis, full length; also called Mtb GrpE; WT GrpE
Which results are given for B1?
stoichiometry N (SEC): 2; Kd [1]: 1.79 µM; stoichiometry N [1]: 0.69; Kd [2]: 20.7 µM; stoichiometry N [2]: 0.07

— PMC10803776, “Structure of the M. tuberculosis DnaK−GrpE complex reveals how key DnaK roles are controlled” (Nature Communications, 2024)
